Test: yeast display, Sf9 membrane polyspecificity reagent, FACS + sequencing; frameworks hold sequencing errors
Outline: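 Genes from sorted yeast were amplified by colony PCR, read by MiSeq 2 × 250 sequencing and filtered on CDR length. These cells carried a synthetic nanobody library in Saccharomyces cerevisiae BJ5465 and were sorted by FACS into low and high (top ~1%) gates on anti-HA and streptavidin fluorescence. Polyreactivity is labelled according to the gate of origin.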

Row | Sequence | polyreactivity (PSR sort gate)
1 | QVQLVESGGGLFQAGGSLRLSCAASGSIFLYYAMGWYRQAPGKERELDATIRRRDGSTYYADSVKGRFTISRDNAKNTVYLQMNSLIPEDTAVYYCNTAGYYWLHYTMDYWGQVTQVTVSS | high polyreactivity
2 | QVQLVESGGGLFQAGGSLRLSCAASGSIFYNYGMAWYRHAPGKERELVAAIRASGDSTYYADSVKGRFTISRDNAKNTVYLQMNSLKPEDTEVYYCAARPNQSYYGLYYYWGQGTQVTVSS | low polyreactivity
3 | QVQLVESGGGLFQAGGSLRLSCAASGSIFYYYAMGWYRQAPGKERELVAAITRSSGSTYADSVKGRFTISGDNAMYTVYVQMNSLKPEDTAVYYCATVQSDWRRNYSYYHWGQATQVTVSS | high polyreactivity
4 | QVQLVESGGGLFQAGGSLRLSCAASGSTFGTYAMGRYRPPPAKERELVAAISTGGSTYYADSVKGRFTISRDNAKNTVYLQMNSLKPEDTAVYYCAALADYVRRASDYWGQGTQVTVSS | low polyreactivity
5 | QVQLVESGGGLFQAGGSLRLSCAASGSTFGWNAMGWYRHAPGKERELVAAINKSGGRTYYADSVKGRFTISRDNAKNTVYLQMISLKPEDTAVYYCAAVTPIRVTSPDYDYWGQGTQVTVSS | low polyreactivity
6 | QVQLVESGGGLFQAGGSLRLSCAASGSTFKFNAMGWYRQAPGKEWELVAAISNRGGTTYYADSVKGRFTISRDNAKNTVYLLMNSLKQEDTAVYYCAAGRVQYYYFWGQGTQVTVSS | high polyreactivity
7 | QVQLVESGGGLFQAGGSLRLSCAASGSTFPKYEMGWYRQAPGKERELVATISSGTRTYYADSVKGRFTISRDNAKNTVYLQMNSLKPDDTAVYYCAASYQPRKGAHYGYWGQGSQVTVSS | high polyreactivity
8 | QVQLVESGGGLFQAGGSLRLSCAASGSTIWSYAMGWYRQAPGKERELVASITWSGGSTYADSVKGRFTISRDNAKNTVYFQMNRLKPEDTAVYYCARESTLTYYSDDFDYWGQGTQVTVSS | low polyreactivity
9 | QVQLVESGGGLFQAGGSLRLSCAASGSTLYEYAMGWYRQAPGKERELVAAINWSGGSTYYADSVKGRFTISRDNAKNTVYLQMNSLKPEDTAVYYCNRVKTGSTYRRRYWSMGYWGQGTQVTVSS | high polyreactivity
10 | QVQLVESGGGLFQAGGSLRLSCAATGSTFSGYAMGWYRQATGKDRELVAAIASTGRTYYADSVKGRFTISRDNAKKTVYLQMNSLKPEDTAVYYCAAKRYTVYVHKYEYWGQGTKVTVSS | high polyreactivity
11 | QVQLVESGGGLFQAGGSLRLSCAATGSTYIRYAMGWYRQAPGKEREFVAAITWSGTGTYYADSVKARFTISRDNAKNTVYLQMNSLKPEDTAVYYCAAEWSWVRYSFDYWGQGTQVTVSS | high polyreactivity
12 | QVQLVESGGGLFQAGGSLRLSCADSGRIFTSNAMGWYRQATGKVRELVAVISRRGGSTYYADSVKGRFTISRDNAKNTVYLQMNSLKPEDTAVYYCNARVYWYYPMDYWGQGTQVTVSS | low polyreactivity
13 | QVQLVESGGGLFQAGGSLRLSCAPSGRTFSHYAMGWYRQAPGKERELVAAISWSGGRTYYADSVKGRFTISRYNAKNTVYLQMNSLKPEDTAVYYCATDKVSNRRYDYWGQGTQVTVSS | high polyreactivity
14 | QVQLVESGGGLFQAGGSLRLSSAASGSIFINNGMGWYRQAPGKESELVAAIYSGGSTYADSVKGRFTISRDNAKNTVYLQMNSLKPEDTAVYYCAVDVWLRGLYGYEYDYWGQGTQVTVSS | low polyreactivity
15 | QVQLVESGGGLFQAGGSLRLSSAASGSTFDPYAMGWSRQAPGKERELVATITYSGGRTYYADSVKGRFTISGDNAKNTVYLQMNSLKPEDTAVYYCAVDVVYWGGDYCGQGTQVTVSS | low polyreactivity
16 | QVQLVESGGGLFQAGGSLRLTCAASGSIFTVYSIGLYRQAPGKERELVAGISSGAGTTYADSVKGRFTISRDNAKNTVYLQMNSLIPEVTAVYYCAAYTWDTDHYWYGYVPYDYWGQGTQVTVSS | low polyreactivity
17 | QVQLVESGGGLFQAGGSLRVSCAASGRTFRVYVMGSYRQAPGKERELVAAIRASGGITYYADSVKGRFTLSRDTAKNTVYLQMNSLKPEDTAVYYCAARPRTRYDYWGQGTQVTVSS | high polyreactivity
18 | QVQLVESGGGLFQAGGSLSLSCAASGRIYNPNALGWYRQAPGKERELVAAITSGDSTNYADSVKGRFTISRDNAKNTVYLEMNSLKPEDTAVYYCAADWTYPYNSWGQGTQVTVSS | low polyreactivity
19 | QVQLVESGGGLFQAGGTLRLSCAATGITFRWYAMGWYRQAPGKEMELVAAITYRGGSTHYSDSVKGRFTISRDNAKNTVYLQMNSLKPEDTAVYYCAVRRWPRYRWSDYWGQGTQVTLSS | low polyreactivity
20 | QVQLVESGGGLFQAGRSLRIRCAASGRILNVYHMGWYRQAPGKERELVAAISSGANTNYAESVKGRFTISRDNAKNTVDLQMNSLKPEDTEVYFCNTEQFYDYDYTFDYWGQGTQVTVSS | low polyreactivity
21 | QVQLVESGGGLFQAGVSLRLSCAASGSTFDYYAMGWYRQPPAKERELVAAIRYRGGRTYYADSVKWRFTISRDNAKNTVYLQLNSLKPEDTAVYYCAALTIQSSKTYDYWGQGTQVTVSS | low polyreactivity
22 | QVQLVESGGGLFQAVGSLRLSCAASGSTFIPNAMGWYRQAPGKERELVADISYSGGTTYYADSVKGRFTISRDNAKKTVYLQMNSLKPEDTSVYYCAAVYYTSFYSWPPYDYWGQGTQVTVSS | low polyreactivity
